These results are taken from article PMC2606041 (Structure (London, England : 1993), 2008).

Series [1] deals with the molecule itself. The series is described as follows: NMR solution structure.
Series [2] concerns the molecule itself. Description: SEC.

B1: AbhN (N-terminal DNA-binding domain of Abh, residues 1-54) (domain or fragment, Bacillus subtilis, UniProt P39758 1-54, looked up)
chain: MKSIGVVRKVDELGRIVMPIELRRALDIAIKDSIEFFVDGDKIILKKYKPHGVC
B1: in series [1], the binding result is on record as “binds”.

B2: SpoVTN (N-terminal DNA-binding domain of SpoVT, residues 1-55) (domain or fragment, Bacillus subtilis, UniProt P37554 1-55, looked up)
chain: MKATGIVRRIDDLGRVVIPKEIRRTLRIREGDPLEIFVDRDGEVILKKYSPISEL
Turning to B2, the “stoichiometry N” value in series [2] came out at 2.
